Test results from patent US20150344570A1 (published 2015).

T1: FcγRIIb extracellular domain with C-terminal His tag (human, UniProt P31994 43-217)
T1 construct: extracellular domain; Soluble receptor expressed in FreeStyle293 cells and used as analyte in Biacore; also called FcgRIIb; 2b; not shown: His tag attached to the C terminus
T1 sequence (looked up): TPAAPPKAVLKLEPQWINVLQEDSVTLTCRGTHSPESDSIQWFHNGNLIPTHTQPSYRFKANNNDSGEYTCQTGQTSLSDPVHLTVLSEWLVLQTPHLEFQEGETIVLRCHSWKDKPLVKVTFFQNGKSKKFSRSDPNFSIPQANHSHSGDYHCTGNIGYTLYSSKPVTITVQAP

T2: FcγRIIb (human, UniProt P31994 43-217)
T2 construct: extracellular domain; Soluble extracellular domain with C-terminal His tag, used as analyte in Biacore; also called FcgRIIb; 2b; not shown: His tag attached to the C terminus
T2 sequence (looked up): T1 sequence (looked up)

B1: GpH7-A5/GpH7-B3 variant E269_12R/GpL16-k0 (antibody, human IgG1, kappa)
heavy 1: not shown
heavy 2: not shown
light: DIVMTQSPLSLPVTPGEPASISCQASESLVHSNRNTYLHWYLQKPGQSPQLLIYKVSNRFSGVPDRFSGSGSGTDFTLKISRVEAEDVGVYYCSQNTHVPPTFGQGTKVEIERTVAAPSVFIFPPSDEQLKSGTASVVCLLNNFYPREAKVQWKVDNALQSGNSQESVTEQDSKDSTYSLSSTLTLSKADYEKHKVYACEVTHQGLSSPVTKSFNRGEC
notes: Heterodimerized anti-glypican-3 IgG1 with the alteration in only one H chain; also called He Ab
B2: GpH7-A5/GpH7-B3 variant P271_20W/GpL16-k0 (antibody, human IgG1, kappa)
heavy 1: not shown
heavy 2: not shown
light: B1 light
notes: as for B1
B3: GpH7-A5/GpH7-B3 variant E269_16H/GpL16-k0 (antibody, human IgG1, kappa)
heavy 1: not shown
heavy 2: not shown
light: B1 light
notes: as for B1
B4: GpH7-A5/GpH7-B3 variant E269_19Q/GpL16-k0 (antibody, human IgG1, kappa)
heavy 1: not shown
heavy 2: not shown
light: B1 light
notes: as for B1
B5: GpH7-A5/GpH7-B3 variant Q295_01G/GpL16-k0 (antibody, human IgG1, kappa)
heavy 1: not shown
heavy 2: not shown
light: B1 light
notes: as for B1
B6: GpH7-A5/GpH7-B3 variant E269_13S/GpL16-k0 (antibody, human IgG1, kappa)
heavy 1: not shown
heavy 2: not shown
light: B1 light
notes: as for B1
B7: GpH7-A5/GpH7-B3 variant Q295_02A/GpL16-k0 (antibody, human IgG1, kappa)
heavy 1: not shown
heavy 2: not shown
light: B1 light
notes: as for B1
B8: GpH7-A5/GpH7-B3 variant Q295_09D/GpL16-k0 (antibody, human IgG1, kappa)
heavy 1: not shown
heavy 2: not shown
light: B1 light
notes: as for B1
B9: GpH7-A5/GpH7-B3 variant E269_18N/GpL16-k0 (antibody, human IgG1, kappa)
heavy 1: not shown
heavy 2: not shown
light: B1 light
notes: as for B1
B10: GpH7-A5/GpH7-B3 variant G237_02A/GpL16-k0 (antibody, human IgG1, kappa)
heavy 1: not shown
heavy 2: not shown
light: B1 light
notes: Heterodimerized anti-glypican-3 IgG1; alteration in the GpH7-B3 chain only; also called He Ab
B11: GpH7-A5/GpH7-B3 variant P238_10E/GpL16-k0 (antibody, human IgG1, kappa)
heavy 1: not shown
heavy 2: not shown
light: B1 light
notes: as for B10
B12: GpH7-A5/GpH7-B3 variant G236_09D/GpL16-k0 (antibody, human IgG1, kappa)
heavy 1: not shown
heavy 2: not shown
light: B1 light
notes: as for B10
B13: GpH7-A5/GpH7-B3 variant G237_10E/GpL16-k0 (antibody, human IgG1, kappa)
heavy 1: not shown
heavy 2: not shown
light: B1 light
notes: as for B10
B14: GpH7-A5/GpH7-B3 variant P238_15Y/GpL16-k0 (antibody, human IgG1, kappa)
heavy 1: not shown
heavy 2: not shown
light: B1 light
notes: as for B10
B15: GpH7-A5/GpH7-B3 variant G237_15Y/GpL16-k0 (antibody, human IgG1, kappa)
heavy 1: not shown
heavy 2: not shown
light: B1 light
notes: as for B10
B16: GpH7-A5/GpH7-B3 variant G237_09D/GpL16-k0 (antibody, human IgG1, kappa)
heavy 1: not shown
heavy 2: not shown
light: B1 light
notes: as for B10
B17: GpH7-A5/GpH7-B3 variant S239_08L/GpL16-k0 (antibody, human IgG1, kappa)
heavy 1: not shown
heavy 2: not shown
light: B1 light
notes: as for B10

Biological target: T1, FcγRIIb extracellular domain with …
Experiment: SPR (Biacore), antibody captured, FcγR as analyte; binding activity relative to control heterodimerized antibody
Description: (§1) The heterodimerized antibodies He Abs in which one of the H chains was introduced with an alteration were assayed for their binding activities to each activating FcγR and inhibitory FcγR according to the method described in Example 4. […] The activating FcγRs in FIGS. 26, 27, 28, and 29 are FcγRIa, FcγRIIa (R), FcγRIIa (H), and FcγRIIIa, respectively.
(§2) Analysis of interaction between objective antibody and the FcγR was carried out using Biacore T100 (GE Healthcare). HBS-EP+ (GE Healthcare) was used as the running buffer, and the measurement temperature was set to 25° C. Chips produced by immobilizing the antigen peptide by the amine coupling method to a Series S Sencor Chip CM5 (GE Healthcare), or alternatively, chips produced by allowing preliminarily biotinylated antigen peptides to interact with and immobilize onto a Series S Sensor Chip SA (certified) (GE Healthcare) were used. Antibodies of interest were captured onto an antigen peptide-immobilized chip, and allowed to interact to each FcγR diluted with running buffer. To regenerate and repeatedly use the chip, the antibodies captured on the chip were washed off by reacting 10 mM glycine-HCl, pH 1.5.

Row | He/Con_2b | Binder
1 | 25.2 % of GpH7-A5/GpH7-B3/GpL16-k0 (=100) | B1
2 | 58.1 % of GpH7-A5/GpH7-B3/GpL16-k0 (=100) | B2
3 | 38.5 % of GpH7-A5/GpH7-B3/GpL16-k0 (=100) | B3
4 | 44.3 % of GpH7-A5/GpH7-B3/GpL16-k0 (=100) | B4
5 | 46 % of GpH7-A5/GpH7-B3/GpL16-k0 (=100) | B5
6 | 47.8 % of GpH7-A5/GpH7-B3/GpL16-k0 (=100) | B6
7 | 79.7 % of GpH7-A5/GpH7-B3/GpL16-k0 (=100) | B7
8 | 60.8 % of GpH7-A5/GpH7-B3/GpL16-k0 (=100) | B8
9 | 44.8 % of GpH7-A5/GpH7-B3/GpL16-k0 (=100) | B9

Biological target: T3, FcγRIIIa extracellular domain with C-terminal His tag (human, UniProt P08637 17-208)
T3 construct: extracellular domain; also called FcgRIIIa; 3a; not shown: His tag attached to the C terminus
Experiment: as above
Description: as §1, §2

T3 sequence (P08637 17-208): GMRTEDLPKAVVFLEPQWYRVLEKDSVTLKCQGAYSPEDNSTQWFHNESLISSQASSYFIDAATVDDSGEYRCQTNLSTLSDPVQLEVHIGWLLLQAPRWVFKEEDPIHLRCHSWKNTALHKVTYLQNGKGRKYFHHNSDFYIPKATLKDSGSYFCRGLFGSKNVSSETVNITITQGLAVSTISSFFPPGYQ

Row | He/Con_3a | Binder
10 | 43.2 % of GpH7-A5/GpH7-B3/GpL16-k0 (=100) | B1
11 | 74.1 % of GpH7-A5/GpH7-B3/GpL16-k0 (=100) | B2
12 | 51.2 % of GpH7-A5/GpH7-B3/GpL16-k0 (=100) | B3
13 | 65 % of GpH7-A5/GpH7-B3/GpL16-k0 (=100) | B4
14 | 73 % of GpH7-A5/GpH7-B3/GpL16-k0 (=100) | B5
15 | 62.7 % of GpH7-A5/GpH7-B3/GpL16-k0 (=100) | B6
16 | 106 % of GpH7-A5/GpH7-B3/GpL16-k0 (=100) | B7
17 | 81.5 % of GpH7-A5/GpH7-B3/GpL16-k0 (=100) | B8
18 | 57.8 % of GpH7-A5/GpH7-B3/GpL16-k0 (=100) | B9

Biological target: T4, FcγRIa (human, UniProt P12314 16-292)
T4 construct: extracellular domain; Soluble extracellular domain with C-terminal His tag, used as analyte in Biacore; also called FcgRI; 1a; not shown: His tag attached to the C terminus
Experiment: SPR (Biacore), antibody captured, FcγR as analyte; relative to GpH7-A5/GpH7-B3/GpL16-k0 = 100

T4 sequence (P12314 16-292): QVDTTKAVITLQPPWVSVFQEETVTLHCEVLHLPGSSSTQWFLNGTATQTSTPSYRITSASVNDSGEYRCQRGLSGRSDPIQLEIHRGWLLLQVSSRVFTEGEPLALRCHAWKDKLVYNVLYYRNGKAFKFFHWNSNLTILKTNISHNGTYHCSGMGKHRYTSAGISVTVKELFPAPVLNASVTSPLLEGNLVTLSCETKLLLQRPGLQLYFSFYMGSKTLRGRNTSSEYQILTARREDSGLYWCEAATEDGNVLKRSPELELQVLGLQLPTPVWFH

Row | He/Con_1a | Binder
19 | 90.3 % of control (=100) | B10
20 | 102 % of control (=100) | B11
21 | 96.6 % of control (=100) | B12
22 | 75.1 % of control (=100) | B13
23 | 101 % of control (=100) | B14
24 | 79.6 % of control (=100) | B15
25 | 84 % of control (=100) | B16
26 | 99.8 % of control (=100) | B17

Biological target: T2, FcγRIIb
Experiment: as above

Row | He/Con_2b | Binder
27 | 124 % of control (=100) | B10
28 | 232 % of control (=100) | B11
29 | 167 % of control (=100) | B12
30 | 114 % of control (=100) | B13
31 | 218 % of control (=100) | B14
32 | 152 % of control (=100) | B15
33 | 223 % of control (=100) | B16
34 | 140 % of control (=100) | B17

Biological target: T3, FcγRIIIa extracellular domain with …
Experiment: SPR (Biacore); He/Con_3a divided by He/Con_2b (FcγRIIIa over FcγRIIb)
Description: as §1, §2

Row | He_3a/2b | Binder
35 | 1.72 ratio | B1
36 | 1.28 ratio | B2
37 | 1.33 ratio | B3
38 | 1.47 ratio | B4
39 | 1.59 ratio | B5
40 | 1.31 ratio | B6
41 | 1.32 ratio | B7
42 | 1.34 ratio | B8
43 | 1.29 ratio | B9

Biological target: T4, FcγRIa
Experiment: SPR (Biacore); He/Con_1a divided by He/Con_2b (binding to FcγRIa against binding to FcγRIIb)
Description: as §1, §2

Row | He_1a/2b (Ia/IIb) | Binder
44 | 0.73 ratio | B10
45 | 0.44 ratio | B11
46 | 0.58 ratio | B12
47 | 0.66 ratio | B13
48 | 0.46 ratio | B14
49 | 0.52 ratio | B15
50 | 0.38 ratio | B16
51 | 0.71 ratio | B17
